Experiments:
Assay in all cases: cell-based or functional assay
[1] = target: CenNLS^GFP: Centauri fragment of superfolder GFP, HA tag, triple SV40 NLS
[2] = target: CenNLS^NLuc: Centauri fragment of NanoLuc, HA tag, triple SV40 NLS
[3] = target: CenNup214^NLuc: Centauri fragment of NanoLuc, HA tag, full-length Nup214 (UniProt P35658)
Sequence of UniProt P35658 (P35658 whole entry, the tested form may be a part): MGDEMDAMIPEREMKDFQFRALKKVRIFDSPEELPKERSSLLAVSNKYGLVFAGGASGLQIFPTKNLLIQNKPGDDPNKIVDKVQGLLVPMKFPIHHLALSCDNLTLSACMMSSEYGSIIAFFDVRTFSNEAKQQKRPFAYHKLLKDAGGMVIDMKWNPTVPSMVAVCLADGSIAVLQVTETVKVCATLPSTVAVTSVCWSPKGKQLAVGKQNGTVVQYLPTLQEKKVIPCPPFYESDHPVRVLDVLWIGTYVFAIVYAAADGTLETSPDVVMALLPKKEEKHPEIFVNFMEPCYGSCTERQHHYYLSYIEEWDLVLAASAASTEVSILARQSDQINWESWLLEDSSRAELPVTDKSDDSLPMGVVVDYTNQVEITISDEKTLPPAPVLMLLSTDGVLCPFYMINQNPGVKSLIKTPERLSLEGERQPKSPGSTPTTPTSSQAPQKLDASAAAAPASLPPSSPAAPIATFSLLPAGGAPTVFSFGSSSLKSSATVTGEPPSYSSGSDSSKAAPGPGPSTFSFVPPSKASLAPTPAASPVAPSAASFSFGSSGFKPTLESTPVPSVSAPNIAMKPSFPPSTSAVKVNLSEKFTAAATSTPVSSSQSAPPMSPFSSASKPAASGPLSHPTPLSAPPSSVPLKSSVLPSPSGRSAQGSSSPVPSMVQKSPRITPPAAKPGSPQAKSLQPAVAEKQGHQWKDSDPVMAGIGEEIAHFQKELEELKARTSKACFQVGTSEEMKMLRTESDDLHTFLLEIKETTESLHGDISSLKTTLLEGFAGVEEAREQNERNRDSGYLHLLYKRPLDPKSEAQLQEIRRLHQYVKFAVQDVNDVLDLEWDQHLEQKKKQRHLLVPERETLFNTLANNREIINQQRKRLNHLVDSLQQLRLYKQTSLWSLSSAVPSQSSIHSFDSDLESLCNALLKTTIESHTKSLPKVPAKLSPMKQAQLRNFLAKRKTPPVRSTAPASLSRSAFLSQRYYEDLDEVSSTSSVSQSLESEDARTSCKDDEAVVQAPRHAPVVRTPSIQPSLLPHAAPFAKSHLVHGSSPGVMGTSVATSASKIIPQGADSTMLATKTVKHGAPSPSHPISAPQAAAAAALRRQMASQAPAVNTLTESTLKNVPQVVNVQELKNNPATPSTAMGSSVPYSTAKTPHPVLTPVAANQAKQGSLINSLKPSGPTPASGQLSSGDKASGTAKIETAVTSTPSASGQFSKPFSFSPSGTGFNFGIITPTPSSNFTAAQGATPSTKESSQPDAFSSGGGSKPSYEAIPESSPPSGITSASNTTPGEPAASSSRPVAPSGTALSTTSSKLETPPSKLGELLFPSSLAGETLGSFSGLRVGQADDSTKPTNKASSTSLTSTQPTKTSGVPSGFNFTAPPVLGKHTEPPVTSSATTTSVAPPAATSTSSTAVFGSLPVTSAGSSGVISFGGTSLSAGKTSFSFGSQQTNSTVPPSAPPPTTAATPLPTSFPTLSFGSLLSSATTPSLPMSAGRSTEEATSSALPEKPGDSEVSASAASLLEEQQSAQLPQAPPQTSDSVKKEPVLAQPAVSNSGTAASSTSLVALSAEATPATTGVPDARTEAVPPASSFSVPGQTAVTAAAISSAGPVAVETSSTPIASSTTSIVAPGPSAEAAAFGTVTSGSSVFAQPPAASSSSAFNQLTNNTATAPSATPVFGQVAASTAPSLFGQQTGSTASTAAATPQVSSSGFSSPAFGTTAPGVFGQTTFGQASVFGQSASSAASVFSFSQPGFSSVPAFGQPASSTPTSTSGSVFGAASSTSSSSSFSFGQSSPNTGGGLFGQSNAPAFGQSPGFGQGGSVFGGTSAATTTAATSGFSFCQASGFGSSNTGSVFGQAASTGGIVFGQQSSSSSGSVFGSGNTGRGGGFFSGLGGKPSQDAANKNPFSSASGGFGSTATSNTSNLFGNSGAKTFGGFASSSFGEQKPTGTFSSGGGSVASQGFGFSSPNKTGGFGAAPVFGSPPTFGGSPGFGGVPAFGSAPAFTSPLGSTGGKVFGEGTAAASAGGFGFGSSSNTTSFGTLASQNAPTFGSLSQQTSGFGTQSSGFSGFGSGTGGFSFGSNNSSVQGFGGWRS

Substance: HIV-1 LAI integrase (IN) with α^GFP fused at its C-terminus, as carried by αHIV^GFP (from UniProt P03367 1160-1447)
- fold increase in fluorescence (flow cytometry, 48 hpi) [1]: 5 to 10 fold

Substance: HIV-1 LAI integrase (IN) with α^NLuc fused at its C-terminus, as carried by αHIV^NLuc (from UniProt P03367 1160-1447)
- fold increase in emitted luminescence signal (plate luminometry) [2]: 5 to 200 fold
- fold increase in NLuc signal [3]: 10 fold

Substance: HIV-1 LAI integrase D116I mutant with α^NLuc fused at its C-terminus, as carried by αHIV-D116I^NLuc (from UniProt P03367 1160-1447)
- fold increase in NLuc compared to infection in the presence of Nevirapine [2]: 10 fold

Substance: IRF3α-3xFLAG: IRF3 fused to the α fragment of NanoLuc and a 3xFLAG tag (from UniProt Q14653 1-427)
- αCentauri complementation, luminescence fold above uninfected controls (SeV infection, 6 h) [2]: 3 to 6 fold
